Tests used:
PbAcE = biological target: T1, PbAcE (Paenibacillus sp. R4, UniProt A0A452CSP2); assay: p-nitrophenol release at […] nm, initial rates, double reciprocal plot; type: biochemical; conditions: 20 mM Tris-HCl, 150 mM NaCl, pH 7.4; free enzyme
T1 construct: gene cloned in pET-28a (NdeI/XhoI), N-terminal His6 tag cut by thrombin, E. coli BL21(DE3); ~36 kDa monomer, hexamer 234 kDa; 1896 residues modelled in six chains; primers encode N-terminus MPNVDMP and C-terminus IEAYL; catalytic triad Ser185, Asp274, His303

[1] = biological target: cold-active acetyl xylan esterase (PbAcE) from Paenibacillus sp. R4 (Paenibacillus sp. R4); assay: AUC; sedimentation velocity, 20°C, 0.5 mg/ml PbAcE, 20 mM Tris-HCl pH 8.0, 150 mM NaCl, 45,000 rpm, SEDFIT
purified protein = substrate: CCCC(=O)Oc1ccc([N+](=O)[O-])cc1; assay: purified protein; type: biochemical, Paenibacillus sp. R4; conditions: 20 mM Tris-HCl, 150 mM NaCl, pH 7.4, free enzyme

CC(=O)Oc1ccc([N+](=O)[O-])cc1 [pNP-C2, p-nitrophenyl acetate]
Km (PbAcE): initial kinetic studies were performed for pNP-C2 and pNP-C4

cold-active acetyl xylan esterase (PbAcE) from Paenibacillus sp. R4 (enzyme)
stoichiometry N [1]: 6

B1: PbAcE (Paenibacillus sp. R4) (protein)
chain: MPNVDMPLSQLQDYKPELTNETDFDLFWDNAKALSNQKPLHAQVNLVQDYPLKSISIYDVVYDGADGTPIHGWYVTPKGEHQPGSLPVLVKYHGYSGNRGYPNELLQWASMGMAALAIDVRGQGGVTPDRAEYPQGGIPGWMTLGILDPASYYYKQVYLDCIRALDFVCSREEVDASRIAVYGGSQGGGLALAAAGLDSRPKLALPVFPFLCHFRRSVEIHASGPYVEIKNWFRRYDPEHRQEEQVYRTLSYFDGMNMASRIKARTLMAITLQDITCPPSTCFAAYNHLAGPKEVRLYHDYGHEGLPFHEEAMMRFIEAYL
notes: gene cloned in pET-28a (NdeI/XhoI), N-terminal His6 tag cut by thrombin, E. coli BL21(DE3); ~36 kDa monomer, hexamer 234 kDa; 1896 residues modelled in six chains; primers encode N-terminus MPNVDMP and C-terminus IEAYL; catalytic triad Ser185, Asp274, His303
Km (purified protein): 1230 ± 330 µM
kcat (purified protein): 0.19 ± 0.02 s⁻¹

Source: PMC6209228, “Crystal structure and functional characterization of a cold-active acetyl xylan esterase (PbAcE) from psychrophilic soil microbe Paenibacillus sp” (PLoS ONE, 2018)
